In this experiment the target is Ndc80C-GFP (S. cerevisiae Ndc80 complex with GFP at the C terminus of Spc24) (S. cerevisiae) (UniProt P40460).

Here are results for one substance from article PMC8050843.

UniProt P40460, sequence (P40460 whole entry, chain 1 of 4): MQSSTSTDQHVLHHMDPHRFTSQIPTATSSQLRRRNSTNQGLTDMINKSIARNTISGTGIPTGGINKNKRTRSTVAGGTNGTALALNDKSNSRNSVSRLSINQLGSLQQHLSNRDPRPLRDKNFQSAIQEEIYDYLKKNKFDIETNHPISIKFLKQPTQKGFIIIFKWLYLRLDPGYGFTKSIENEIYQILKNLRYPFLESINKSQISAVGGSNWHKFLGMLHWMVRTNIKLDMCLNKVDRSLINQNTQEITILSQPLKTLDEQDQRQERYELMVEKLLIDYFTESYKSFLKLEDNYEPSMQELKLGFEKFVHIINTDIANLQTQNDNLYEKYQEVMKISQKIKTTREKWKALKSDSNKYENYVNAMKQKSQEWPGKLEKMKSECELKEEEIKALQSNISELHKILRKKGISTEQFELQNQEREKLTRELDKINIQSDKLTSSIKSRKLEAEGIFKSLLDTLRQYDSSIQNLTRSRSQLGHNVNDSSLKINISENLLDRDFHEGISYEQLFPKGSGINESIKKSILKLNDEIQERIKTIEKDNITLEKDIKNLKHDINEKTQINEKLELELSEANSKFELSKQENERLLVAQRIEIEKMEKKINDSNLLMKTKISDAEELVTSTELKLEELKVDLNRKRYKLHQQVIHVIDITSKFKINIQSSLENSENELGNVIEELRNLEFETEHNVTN
UniProt P40460, sequence (P33895 whole entry, chain 2 of 4, further chain): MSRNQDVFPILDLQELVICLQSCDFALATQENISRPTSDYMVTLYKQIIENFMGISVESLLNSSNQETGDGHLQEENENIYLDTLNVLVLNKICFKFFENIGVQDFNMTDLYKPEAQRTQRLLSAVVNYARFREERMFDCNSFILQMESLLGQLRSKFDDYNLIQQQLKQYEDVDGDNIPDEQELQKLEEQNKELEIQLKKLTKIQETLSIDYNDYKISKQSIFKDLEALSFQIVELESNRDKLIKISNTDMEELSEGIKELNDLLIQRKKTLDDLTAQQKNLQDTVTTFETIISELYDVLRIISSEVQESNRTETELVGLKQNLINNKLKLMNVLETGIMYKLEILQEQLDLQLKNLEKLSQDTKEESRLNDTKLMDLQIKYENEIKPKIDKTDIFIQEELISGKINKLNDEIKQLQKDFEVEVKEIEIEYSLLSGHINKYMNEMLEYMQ
UniProt P40460, sequence (Q04477 whole entry, chain 3 of 4, further chain): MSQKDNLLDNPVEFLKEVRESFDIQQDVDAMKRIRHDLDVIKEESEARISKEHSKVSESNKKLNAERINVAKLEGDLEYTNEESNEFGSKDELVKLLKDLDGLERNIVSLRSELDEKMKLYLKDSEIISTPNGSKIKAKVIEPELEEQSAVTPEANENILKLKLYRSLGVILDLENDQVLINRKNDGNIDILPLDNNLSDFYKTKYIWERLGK
UniProt P40460, sequence (P40014 whole entry, chain 4 of 4, further chain): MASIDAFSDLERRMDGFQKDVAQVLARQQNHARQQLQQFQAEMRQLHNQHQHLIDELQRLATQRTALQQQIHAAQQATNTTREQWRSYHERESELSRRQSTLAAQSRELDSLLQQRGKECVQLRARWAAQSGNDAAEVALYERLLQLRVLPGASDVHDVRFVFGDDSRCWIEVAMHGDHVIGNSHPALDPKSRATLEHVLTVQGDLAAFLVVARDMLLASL

“Dam1C (S. cerevisiae Dam1 complex, without GFP) (from UniProt P53267 1-343; Q12248 1-94; P36131 1-295)”: the detachment of the Ndc80C nanobead from the MT plus end following transient end-on attachment (end-on drop-off) in the absence of Dam1C, against its presence worked out at 31%.
